A word on the Kd: it is the free concentration of one partner at which half of the binding sites on the other are occupied at equilibrium, for simple one-to-one binding. In general, koff refers to the rate constant with which the complex falls apart. What is called kon is the second-order rate constant of association.

Assay [1] addresses T1, recombinant Thermus thermophilus SlyD FKBP-Her3 (TtSlyD-FKBP-Her3).
T1 construct: expressed in E. coli, the N-terminal methionine can be present or not; also called thermo SlyD-Her3; T.T.SlyD-Her3
T1 chain: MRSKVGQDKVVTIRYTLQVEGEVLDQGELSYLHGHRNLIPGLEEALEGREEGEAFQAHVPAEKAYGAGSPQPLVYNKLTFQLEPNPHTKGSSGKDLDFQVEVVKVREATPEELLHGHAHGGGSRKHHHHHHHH
Description: SPR Biacore T100, antibody captured, 25 C, Langmuir fit. The procedure:
A CM5 series sensor was mounted into the system and was normalized in HBS-ET buffer (10 mM HEPES pH 7.4, 150 mM NaCl, 3 mM EDTA, 0.005% w/v Tween 20) according to the manufacturer's instructions. The sample buffer was the system buffer supplemented with 1 mg/ml CMD (Carboxymethyldextran, Sigma #86524). The system operated at 25° C. 6500 RU RAM-Fcγ (relative units of Fcγ-fragment RamlgG, GE Healthcare) were immobilized according to the manufacturer's instructions using EDC/NHS chemistry on all four flow cells. The sensor was deactivated using 1M ethanolamine.
Analytes in solution were injected at different concentration steps of 0 nM, 1.1 nM, 3.7 nM, 11.1 nM, 33.1 nM and 90 nM for 3.5 min. The dissociation was monitored for 15 min. Where possible, kinetic signatures were evaluated according to a Langmuir fit.
(In general: Surface plasmon resonance follows binding to a sensor surface in real time, without labels.)

The target of assay [2] is T2, TtSlyD-Wildtype.
T2 construct: scaffold without insert; N-terminal methionine can be present or not; also called T.T.SlyD-wt; wild type Thermus thermophilus SlyD protein
T2 chain: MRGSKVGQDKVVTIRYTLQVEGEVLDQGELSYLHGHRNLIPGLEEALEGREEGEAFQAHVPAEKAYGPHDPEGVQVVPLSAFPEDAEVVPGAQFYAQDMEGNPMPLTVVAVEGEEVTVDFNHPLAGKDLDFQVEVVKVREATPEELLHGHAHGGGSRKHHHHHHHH
Description: SPR Biacore T100, antibody captured, 25 C.

Assay [3] concerns the target T1, recombinant Thermus thermophilus SlyD …. Description: SPR Biacore T100, antibody captured, 25 C.
For assay [4], the target named is T3, human Heregulin fragment (HRG) (human).
T3 construct: a 44 kDa homodimeric protein, expressed in FreeStyle 293-F cells; also called Heregulin beta (HRG)
T3 chain: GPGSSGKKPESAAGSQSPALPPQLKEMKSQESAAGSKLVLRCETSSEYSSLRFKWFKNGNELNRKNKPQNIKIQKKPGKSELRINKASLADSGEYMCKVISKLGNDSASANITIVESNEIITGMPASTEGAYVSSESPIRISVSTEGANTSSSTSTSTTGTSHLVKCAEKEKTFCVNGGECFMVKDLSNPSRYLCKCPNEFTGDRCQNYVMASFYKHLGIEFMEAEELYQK
Description: SPR Biacore T100, antibody captured, 25 C.

The target in assay [5] is T4, HER4 ECD-HRG complex (Heregulin-complexed Her-4 ECD) (human, UniProt Q15303 26-651).
T4 construct: Her-4 ECD incubated with a 5-fold molar excess of Heregulin
T4 sequence 1: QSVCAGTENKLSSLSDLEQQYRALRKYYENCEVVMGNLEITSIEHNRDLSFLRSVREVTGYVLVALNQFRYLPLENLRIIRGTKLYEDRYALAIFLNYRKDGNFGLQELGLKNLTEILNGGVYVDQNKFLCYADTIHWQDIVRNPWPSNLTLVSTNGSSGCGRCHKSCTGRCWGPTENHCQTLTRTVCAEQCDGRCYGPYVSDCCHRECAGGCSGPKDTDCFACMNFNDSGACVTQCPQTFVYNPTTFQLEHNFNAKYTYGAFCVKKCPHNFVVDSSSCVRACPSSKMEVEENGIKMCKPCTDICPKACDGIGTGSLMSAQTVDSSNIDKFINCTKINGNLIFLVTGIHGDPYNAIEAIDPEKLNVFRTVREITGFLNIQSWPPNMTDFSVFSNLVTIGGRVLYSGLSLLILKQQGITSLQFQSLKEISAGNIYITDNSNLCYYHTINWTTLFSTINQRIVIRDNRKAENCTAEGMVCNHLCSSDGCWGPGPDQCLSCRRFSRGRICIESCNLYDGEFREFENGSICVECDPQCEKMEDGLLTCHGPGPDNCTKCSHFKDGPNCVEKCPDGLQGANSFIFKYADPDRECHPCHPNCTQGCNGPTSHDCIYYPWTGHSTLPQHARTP
T4 sequence 2: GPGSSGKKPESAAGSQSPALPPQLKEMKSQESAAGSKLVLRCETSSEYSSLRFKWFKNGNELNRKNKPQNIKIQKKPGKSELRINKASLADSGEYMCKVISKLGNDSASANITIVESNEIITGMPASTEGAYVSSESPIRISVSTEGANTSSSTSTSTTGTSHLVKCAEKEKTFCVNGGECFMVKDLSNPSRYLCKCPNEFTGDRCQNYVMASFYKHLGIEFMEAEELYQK
Description: SPR Biacore T100, antibody captured, 25 C.

In assay [6] the target is T5, human recombinant HER3 Extracellular Domain (HER3 ECD) (human, UniProt P21860 20-643).
T5 construct: 68 kDa; also called human-Her3-ECD
Description: SPR Biacore T100, antibody captured, 25 C.

Assay [7] deals with T1, recombinant Thermus thermophilus SlyD …. Description: SPR, antibody captured. The method, then:
In all assay the test antibodies were captured. The system was under the control of the software version V1.1. The instrument buffer was HBS-EP (10 mM HEPES (pH 7.4), 150 mM NaCl, 1 mM EDTA, 0.05% (w/v) P20). The system operated at 25° C. 30 μg/ml Rabbit polyclonal antibody (RAM IgG, (Rabbit anti Mouse IgG with Fc gamma specificity) GE Healthcare) in 10 mM sodium acetate buffer (pH 4.5) was immobilized using EDC/NHS chemistry according to the manufacturer's instructions on the spots 1, 2, 4 and 5 in the flow cells 1, 2, 3 and 4. The sensor was saturated using 1M ethanolamine. In each flow cell, referenced signals were calculated using spots 1-2 and spots 5-4, spot 3 served as a blanc control. […] The antibody capture level (CL) in response units was monitored. […] Thereafter, the antibody-antigen complex dissociation signal was recorded for 5 min. […] The recorded signal shortly before the end of the injection of the antigen was denoted as binding late (BL) in response units. The recorded signal shortly before the end of the recording of the dissociation is denoted as stability late (SL) in response units. The dissociation rate constants were determined calculated The antibody-antigen complex stability in minutes was calculated with the following formula: […]. The Molar Ratio was calculated with the formula: MW (antibody)/MW (antigen) *BL (antigen)/CL (antibody). […]

Several values for one entry are separate records, joined by “and”; a condition that tells them apart may be missing. Equal entries are not always repeated.

B1: anti-HER3 antibody M-08-11 (antibody, V domains shown)
VH: QAYLQQSGAELMRPGASVRMSCQASGYTFTSYTIHWLKQTPRQGLEWIGAIYPRNGDFSYNQKFKDKASLTVDTSSSTAYMHLSSLTSEDSAVYFCARTINYGDWFAYWGQGTLVTVSA
VL: DIQMIQSPASLFVSEGETVIITCRASENIYSNLAWYHQKKGKSPQVLVYAAIKLADGVPLRFSGSGSGTQFSLKINSLQSEDFGSYYCQHFWGPPYTFGSGTNLEIK
notes: mouse monoclonal antibody from hybridoma, tested as hybridoma supernatant or as antibody; also called M-011
B1: in assay [1], the Kd was 1.6 nM and 2 nM. The koff in assay [1] was determined as 0.00014 s⁻¹. In addition, the kon in assay [1] stood at 87000 M⁻¹ s⁻¹. The binding result in assay [2], in assay [4] and in assay [5] was “no binding (tested: 90 nM)” in each case. The “MR (Molar Ratio)” value in assay [3] is 1.4; in assay [6] it was 0.5. Besides, in assay [7], the “ratio Ka (Thermus thermophilus SlyD FKBP-Her3)/Ka (HER3-ECD)” value is at least 1.5 ratio. Also, the “ratio MR (Thermus thermophilus SlyD FKBP-Her3)/MR (HER3-ECD)” value in assay [7] is at least 2 ratio.
